The target of the assay is T1, ScSch9-His (S. cerevisiae, UniProt P11792 1-824).
T1 construct: Sch9 kinase of S. cerevisiae; SCH9 synthesized with a C-terminal 6xHis tag and cloned into the E. coli expression vector p41; also called recombinant ScSch9-His; source: E. coli BL21(DE3), purified (IMAC, Ni-NTA Sepharose); not shown: 6xHis, C-terminal, kept
T1 sequence (looked up): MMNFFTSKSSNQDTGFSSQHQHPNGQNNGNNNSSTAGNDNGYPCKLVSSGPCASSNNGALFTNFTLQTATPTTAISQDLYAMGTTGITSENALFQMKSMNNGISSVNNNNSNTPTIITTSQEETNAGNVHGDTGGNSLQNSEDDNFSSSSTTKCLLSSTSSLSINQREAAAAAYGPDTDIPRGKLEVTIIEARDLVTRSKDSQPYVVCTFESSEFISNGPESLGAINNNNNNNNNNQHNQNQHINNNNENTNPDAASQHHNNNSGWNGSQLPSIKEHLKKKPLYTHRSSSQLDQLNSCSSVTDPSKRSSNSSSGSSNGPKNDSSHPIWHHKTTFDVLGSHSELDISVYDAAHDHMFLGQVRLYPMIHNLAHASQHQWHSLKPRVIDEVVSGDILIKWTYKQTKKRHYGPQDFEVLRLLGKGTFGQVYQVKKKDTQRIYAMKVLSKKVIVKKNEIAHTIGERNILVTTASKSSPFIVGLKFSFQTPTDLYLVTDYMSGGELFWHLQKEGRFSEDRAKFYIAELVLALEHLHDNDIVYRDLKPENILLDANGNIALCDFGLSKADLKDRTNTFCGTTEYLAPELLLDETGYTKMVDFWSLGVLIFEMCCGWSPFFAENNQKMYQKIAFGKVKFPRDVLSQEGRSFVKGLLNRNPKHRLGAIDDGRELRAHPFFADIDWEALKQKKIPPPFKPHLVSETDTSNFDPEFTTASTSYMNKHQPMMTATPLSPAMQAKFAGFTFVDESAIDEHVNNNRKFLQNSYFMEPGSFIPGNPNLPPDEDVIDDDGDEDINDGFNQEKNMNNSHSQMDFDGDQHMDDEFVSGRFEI
Kind of assay: co-IP; endogenous ScCst6 precipitated from S. cerevisiae WT lysate with rabbit anti-Cst6 antibody, bound to protein-G Sepharose beads, washed (IP buffer plus 500 mM NaCl), then incubated with 20 µg recombinant ScSch9-His for 3 h at 4°C; extensive washing; Western blot (anti-ScCst6, anti-6xHis). To be noted: both partners purified. A general note: Immunoblotting shows a protein as a band on a membrane.

B1: ScCst6 (endogenous) (natural protein, UniProt P40535 1-587, looked up)
chain: MFTGQEYHSVDSNSNKQKDNNKRGIDDTSKILNNKIPHSVSDTSAAATTTSTMNNSALSRSLDPTDINYSTNMAGVVDQIHDYTTSNRNSLTPQYSIAAGNVNSHDRVVKPSANSNYQQAAYLRQQQQQDQRQQSPSMKTEEESQLYGDILMNSGVVQDMHQNLATHTNLSQLSSTRKSAPNDSTTAPTNASNIANTASVNKQMYFMNMNMNNNPHALNDPSILETLSPFFQPFGVDVAHLPMTNPPIFQSSLPGCDEPIRRRRISISNGQISQLGEDIETLENLHNTQPPPMPNFHNYNGLSQTRNVSNKPVFNQAVPVSSIPQYNAKKVINPTKDSALGDQSVIYSKSQQRNFVNAPSKNTPAESISDLEGMTTFAPTTGGENRGKSALRESHSNPSFTPKSQGSHLNLAANTQGNPIPGTTAWKRARLLERNRIAASKCRQRKKVAQLQLQKEFNEIKDENRILLKKLNYYEKLISKFKKFSKIHLREHEKLNKDSDNNVNGTNSSNKNESMTVDSLKIIEELLMIDSDVTEVDKDTGKIIAIKHEPYSQRFGSDTDDDDIDLKPVEGGKDPDNQSLPNSEKIK
notes: Transcription factor Cst6 (ATF/CREB family) of S. cerevisiae, endogenous protein of the wild type (BY4741); also called endogenous ScCst6; source: endogenous, S. cerevisiae WT lysate, immunopurified with anti-Cst6 antibody on protein-G Sepharose beads
Consider B1, for which the binding result was “binds”.
